Experimental data taken from the nanobody polyreactivity screen of Harvey et al. (2022).

Assay: yeast display, Sf9 membrane polyspecificity reagent, FACS + sequencing; frameworks hold sequencing errors
Procedure, shortened: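 Synthetic nanobody libraries on Saccharomyces cerevisiae BJ5465 were galactose-induced for 36–48 hours, stained 1 hour at 4 °C with 10% biotinylated, detergent-solubilized Sf9 membrane reagent and enriched on streptavidin microbeads. FACS then separated cells into low and high (top ~1%) gates by anti-HA (expression) and streptavidin (reagent binding) fluorescence. Genes were colony-PCR amplified, MiSeq 2 × 250 sequenced and CDR-length filtered. A clone's polyreactivity label is that of its gate of origin.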

Sequence	polyreactivity (PSR sort gate)
QVQLVESGGGLVQAGGSLRFSCAASGGTFSGYAMGWYRQAPGKERELVAAITSGGGTTYADSVKGRFTISRDNAKNTVYLQMNSLKPEDTAVYYCAKEGHVVIFYIGQYELDYWGQGTQVTVSS	low polyreactivity
QVQLEESGGGLVQAGGSLRLSCAASGRIFHVNAMGWYRPAPGKERELVAAISTSGGRTYYADSVKGRFTISRDNAKNTVYLQMNSLKPEDTAVYYCAKRWPLYVDPTRMDYWGQGTQVTVSS	high polyreactivity
QVQLQESGGALVQAGGSLRLSCAASGTISDRAGMGWYRQAPAKNANVATIDRGTNTNYADSVKGRFTISRDNAKNTVYLQMNSLKPEDTAVYNCAADGRYYIYLDYWGQGTQVTVSS	low polyreactivity
KVQLVESGGGLVQAGGSLRLTCAASGSTFYIYAMGWYRPAPGKERELVATISSTGSTHYADSVKGRFTISRDNAKNTVFLQMNSLKPEDTAGYYCNPVYFGRYSRRDHWGQGTQVTVSS	high polyreactivity
QVQLVESGGGLVQAGGSLRLSCAASGSTFAGNAMGWYRHAPGKERELVAAIDSSTGSTYYADSVKGRFTISLDNAKNTVYLQMNSLKPEDTAVYYCNKTSFLVKLDFWGQGTQVTVSS	low polyreactivity
QVQLVESGGGLVQAGGSLRLSCAASGRIFDDYAMGWNRQAPGKERELVAAISSSVGNTYYADSVKGRFTISRDNAKYTVYLQMNSLKPEDTAVYYCADYSYVRSSYEVEYDYWGQATQVTVSS	low polyreactivity
QVQLVESGGGLVQAGGSLRLSCAASGFTFYSYAMGWYRQAPGKERELFAAITQSGGSTYYADSVKGRFTISRDNAKNTVYLQMNSLKPEDTAVYYCAADIYNDYDYGYYYWGQGTQVTVSS	low polyreactivity
QVQLVESGGGLVQAGGSLSLSCAASGSIFYYYAMGWYRKAPGKERELVASIRSGGSTNYADSVKGRFTISRDNAKNTVYLQKNSLKPEDTAVYYCAARKFYASSLRYGYWGQCTQVTVSS	high polyreactivity
QVQLVESGVGLVQAGGSLRLSCAASGNIFGVYAMGWYRQAPGKERELVATITTGGSTYYADSVKGRFTISRDNAKNTVYLQMNSLKPEDSAVYYCAADVGGGNYVYYGNDYDDGYWGQGTQVTVSS	low polyreactivity
QVQLVESGGGLVQAGRSHRLSCAASGFTFFDNAMGWYRQAPGKERELVAAITWSDGSTYYADSVKGRFTISRDNAKNTVYLQMNSLKPEDTAVYYCNKRGWWDLRHDYWGQGTHVTVSS	low polyreactivity
QVQLVESGGGLVQAGGSLRLSCAASGSIFTGNAMGWYRPAPGKERELVAAISSSGGSTYYADSVKGRFTISRDNSKNTVYLQMNSLKPEDTAVYYSAAYNYFLQYDYWGHGTQVTVSS	low polyreactivity
QVQLVESGGGLVQAGRSLRLSCAASGSIFTHNAMGWYRQAPGKERELVASITSRGGITYYADSVKGRFTISRDNAKNTVYLQMNSLKPEDTAVYYCAADLYIYPYDYWGQGTQVTVSS	low polyreactivity
QVQLEESGGGLVQAGASLRLSCAASGRTIAHYAMGWYRQAPGKERELVAAITRGGGTYYADSVKGRFTISRDNAKHSVYLQMNSLKPEDTAVYYCAADHSRYGYPAKTMDYWGQCTQVTVSS	low polyreactivity
QVQLVESGGGFVQAGGSLRLSCAASGIIFTLYTMGWYIQAPGKERELVASISTRGGSTYYADSVKGRFTISRDYAKNTVYLQMNSLKPEDTAVYYCAAQGGYPVWRYYYWGQGTQVTVSS	high polyreactivity
QVHLVESGGGLVQAGGSLRLSCAASGSTLYRYAMGWYRQAPGKERELVATITRSGGSTYYADSVKGRFTISRDNAKNTVYLQINSLKPEDTAVYYCDAYRKVGGFSRGDYWGQGTKVTVSS	high polyreactivity
QVQLVESGGGLVQAGGSLRLSCAASGNTFTWYTIGWYRQAPGKERELVAVITSDGSKYYADSVKGRFTISRDNAKNTFYLQMNSLKPEVTAVYYCTVGGGTNYGYGYWYGFYYWGQGTQVTVYS	low polyreactivity
QVQLVESGGGLVQAGGSLRLSCAASGRTIWVYAMGWYRQAPGKERELVAAIRWSAGTTYYADSVKGRFTISRDNAKNTVYLQMNSLKPEDTAVYYCAADASSRYGVLEVDYWGQGTQVTVSS	high polyreactivity
QFQLVESGVVLVQAAASLRLSCAASGIIFQRNDMGWNRQAPGKETDLVANIRDGGITNADSVKGRFTISRDNAKNTVYLQMNCLKPEDTAVYYCARDDTSPGYGDQSSNAAYYYWGQGTQVTVSS	low polyreactivity
QVQLVESGGGLVQAGGSLRLSCAASGFIFSANDMGGYRQAPGKERELVADIDSSGRTNYADSVKGRFTISRDNAKNTVYLQMNSLNPEDTAVYYCATPPDDKGGGYLGYDYWGQGTEVTVSS	low polyreactivity
QVQLVESGGGLVQAGGSLRLSCAASGYTIDGYAMGWYRQAPGKERELVAGISSAGTTNYADSVKGRFTISRDNAKNTVYLQMNSLKPEDTAVYYCNKDYSTYWLYTWQITVADDYWGQGTQVTVSS	low polyreactivity
QVQLVESGGGLVQAGGSLRLSCAASGSNFHGNSLGRYRQGTGKERELVAAISQSGDSTYYADSVKGRFTISRDNAKNTVYLQMNSLKPEDTAVYYCAARSGYRGYYHFYYWGQGTQVTVSS	high polyreactivity
QVQLLESGGGLFQAGGILRLSCAASGLIFWSNAMGWYRKEPGKERELVAAISRRGGRTYYADSVKGRFTISRDNAKNTVYVQMNSLKPEDSALYYCNADLYFLTFGYDYWGQGTQVTVSS	high polyreactivity

Sequence	polyreactivity (PSR sort gate)
QVQLVESGGGLVQAGGSLRLSCAASGRIFWSYAMGWYRPAPGKERELVAAISYSGGGTYYADSVKGRFTISRDNAKNTVYLQMNSLKPEDTAVYYCAAETYYAPYDYWGQGTQVTVSS	high polyreactivity
QVQLVESGGGLVQAGGSLRLSCAASGRNFALNAMGWYRQAPGKERELLATIRWRGGSTYYADSVKGRFTISRDNAKKTVYLQMNSLKPEDTAVYYCATGPRPYPYDYCGQGTQVTVSS	high polyreactivity
QVQLVESGGGLVKAGGSLSLSCAASGFTVYRYTMGWYRPAPGKEREVVARITYSGGSTYYADSVKVRFTISRDNAKNTVYLQLYCLKPVDSAVYYCNARSDFYSRYGYKYDYWGQGTQVTVSS	high polyreactivity
QVQLVESVGGLVQAGGSLRLSCAASGRIFRYYAMGWSSQAPGKESELVAAITSDGRTYYADSVKGRFTISRDNAKNTVYLQMNSQKPEDTAVYYCAADHHSYRYGGYYYWGQGTQVTVAS	low polyreactivity
QVQLVESGGGLVQAGGSLRLSCAASGSILSYNTMGWYRHAPGKEREFVACITYSGSRTYYADSVKGRFTISRDKAKNTDYLQMNSLKPEDTAVYYCAKRNYYLLYWGQGTQVTVSS	high polyreactivity
QVQLVESGGGLVQAGGSLRLICAASGTIFSDNEMGRYRQAPGKEREFVADISSDGSTYYADSVKGRFTISRDNAKNTVYLQMNSLKPEDTAVYYCDADPIFSLYYHYGHFDYWGQGTQVTVSS	low polyreactivity
QVQHVESGGGIVQAGGSLRLSCAASGITFYGNTMGWYRPARGKERELVARISSGGSTNYADSVKGRFTISREKAKNSGYLQMNSLKPEDTAVYYCAVKQYWYIWSGYGYDYWGQGTQVTVSS	high polyreactivity
QVQLVESGGGLVQAGGSLRLSCAASGSTFFSYDMGWYRQAPGKERELVATISTSVGRTYYADSVKGRFTISRDNAKNTVYLQMNSLKPEDTAVYYCATVGYLYTPVVVTWWDWGDYWGQGTQVTVSS	low polyreactivity
QVQLVESVGGLVQAGGSLRLSCAASGRTFLRNAMGWYRQAPGKERELVASITSRGGRTYADSVKGRFTISRDNAKNTVYLQMNSLKPEDTAVYYCAARRQAGLRYDYWGQGTQVTVSS	high polyreactivity
QVQLVESGGGLVQAGGSLRLSCAASGSTFSGKAMGWYRQAPGKERELVAAITSSGGSTYYADSVKGRFTISRDNAKNTVYLQMNSLKPEDTAVYYCAAKSRRTRRSYYWGQGTQVTVSS	high polyreactivity
QLQLVESGGGLVQAGGRLRLSCAASGFIFHINARGWYRQAPGKEREFVAAISRSVGSTSYADTVKGRFTNSRDNAKNTVYLLMNSLKPEDTAVYYCNAALRKRKGPYDYWGQGTQVTVSS	high polyreactivity
QVQLVESGGGLVQAGGSLRLSCAASGFTFYLYGMGGYRQAPGKERELVAAIRSGGSTNYADSVKGRFSISRDNAKNTVYLQMNSLKPEDTAVYYCATDIHSVHNNRDKPDYDYWGQGSQVTVSS	low polyreactivity
QVQLVESGGGLVQAGGSLRLSCAASGITFYRYAMGWYRQAPGKERELVAAISWSGGRTYYADSVKGRFTISRDNAKNTVYLQMNSLKPEDTAVYYCNAYLYPYTRLDYWGQGTQVTVSS	high polyreactivity
QVQLVESWGGLVQAGGSLRLSCAASGRIFGANARGWYRQAPGKERELVATITYGGTSTYYADSVKGRFTISRDNAKNSVYLQLNSLKPEYTADYYCAAASTYPLPYDFWGQGTQVTVSS	low polyreactivity
QVQLVESGGGLVQAGGSLRLSCAASGRIFRGYARGWYRQAPGKEREFVAAITKNGGSTYYADSVKGRFTISRDNAKNTVYLQMNSLKPEDTAVYYCAVRAWDPYTGKSDYWGQGTQVTVSS	low polyreactivity
QVQHVESGGGLVQAGGSLRLSCAASGSTIRNYAMGWYRQAHGKERELVAAISSGGRTYYADSVKGRFTISRDNAKNPVYLQMTSLKPEDTAVYYCAARVYYWSFAGILYTPTGGYWGQGTQVTVSS	high polyreactivity
QVQLVESGGGIVQAGGSLRLSCAASGFTFSRYTMGWFRPAPGQERELVAAINRRGGSTYYADSVKGRFTISRDNAKHTVYLQLNSVKPADTAVYYCAATYTVRSGNGIANDYWGQGTQVTVSS	high polyreactivity
QVQLVESGGGLVQAGGSLRLSCAASGSTFRSYVMGWYRQAPGKERELGAGISYRGGTTYYADSVKGRFTISRDNAKNTVYLQMNSLKPEDTAVYNCAADSTPYVLSGNYDYWGQGTQVTVSS	low polyreactivity
QVQLVESGGGLVHAGGSLRLSCAASGSIFTRNAMGWYRQAPGKERELVAAISRRGVSTYYADSVKGRFTISRDNAKNTVYLQMNSLKPEDTAVYYCNATIRYYRRGKLYDYWGQGTQVTVSS	high polyreactivity
QVQLVESGGGLVQAGGSLRLSCAASGRIFWGNALGWYRQAPGKVRELVAAITRRGGTTFYADSVKGRFTISRDNAKNTVYLQKNSLKPEDTAGYYCAARRYCQYDGYDSGGQGTQVTVSS	high polyreactivity
QVQLVESGGGLVQAGGSLRLSCAASGSIFYTYAMGWYRQAPGKERELVATIRVSGVSTYADSVKGRFTISRDNAKNTVYLQMNSLKPEDTAVYYCNKVSFYEPIYWQQGYVLLDYWGQGTQVTVSS	low polyreactivity
